Test results taken from patent US20140120555A1 (PIERRE FABRE MEDICAMENT, published 2014).
Changes are numbered by the printed parent chain. Names may count otherwise. Blank lines part the entries; values can stand above or below the binder they belong to.

Key:
[1] = target: T1, Recombinant mouse FcγRI [CD64], Gln25-Pro297 with C-terminal 6-His tag (mouse, UniProt P26151 25-297); assay: SPR (Biacore X): m-FcγRI injected over c515H7 Mab immobilized on a CM4 sensorchip; Langmuir model
T1 construct: range 25-297; Soluble form bought from R&D Systems; also called m-FcγRI
T1 sequence: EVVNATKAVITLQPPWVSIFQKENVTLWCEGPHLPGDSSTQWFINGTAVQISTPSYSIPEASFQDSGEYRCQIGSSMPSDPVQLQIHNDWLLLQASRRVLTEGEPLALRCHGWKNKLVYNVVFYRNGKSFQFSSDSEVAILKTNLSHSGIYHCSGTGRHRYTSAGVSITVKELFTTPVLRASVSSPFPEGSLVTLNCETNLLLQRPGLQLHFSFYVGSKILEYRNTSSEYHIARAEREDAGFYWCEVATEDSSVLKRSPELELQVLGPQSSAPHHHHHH
Procedure: (§1) 2017 RU of c515H7 Mab were immobilized using the amine coupling kit chemistry on the second flowcell (FC2) of a CM4 sensorchip. The first flowcell (FC1) activated by NHS and EDC mixture and des-activated by ethanolamine served as the reference surface to check and subtract the non specific interaction between the analyte (Fc gamma receptors) and the sensorchip matrix.
(§2) The kinetic experiments were carried out at 25° Celsius at a flow rate of 30 μl/min. The HBS-EP buffer was used either as the running buffer or for the preparation of analyte solutions. The analyte solutions were injected during 90 seconds (association phase) with a 90 seconds delay (dissociation phase). An injection of running buffer as analyte was used as a double reference. All the sensorgrams were corrected by this double reference sensorgram.
(§3) After each injection of the analyte, the sensorchip was regenerated by injection of 20 mM NaOH, 75 mM NaCl solution.

[2] = target: T1, Recombinant mouse FcγRI [CD64], …; assay: SPR (Biacore X), Mab on CM4 chip, m-FcγRI as analyte, heterogeneous ligand model, minor component; minor component (19%), lower end
Procedure: as §1, §2
(§4) According to this model, the c515H7 Mab Fc domain may be regarded as a mixture of two components.

[3] = target: T1, Recombinant mouse FcγRI [CD64], …; assay: SPR (Biacore X), Mab on CM4 chip, m-FcγRI as analyte, heterogeneous ligand model, major component; major component (81%), lower value
Procedure: as §1, §2, §4

[4] = target: T1, Recombinant mouse FcγRI [CD64], …; assay: SPR (Biacore X), Mab on CM4 chip, m-FcγRI as analyte, heterogeneous ligand model, major component; major component (81%), higher value
Procedure: as §1, §2, §4

[5] = target: T1, Recombinant mouse FcγRI [CD64], …; assay: SPR (Biacore X): m-FcγRI injected over c515H7 Mab immobilized on a CM4 sensorchip; heterogeneous ligand model, major component (81%)
Procedure: as §1, §2, §3

[6] = target: T2, Recombinant human FcγRI [CD64], Gln16-Pro288 with C-terminal 6-His tag (human, UniProt P12314 16-288); assay: SPR (Biacore X): h-FcγRI injected over c515H7 Mab immobilized on a CM4 sensorchip; heterogeneous ligand model, major component (100%)
T2 construct: range 16-288; Soluble form bought from R&D Systems; also called h-FcγRI
Procedure: as §1, §2, §3

[7] = target: T3, Recombinant mouse FcγRIII [CD16], Ala31-Thr215 with C-terminal 10-His tag (mouse, UniProt P08508 31-215); assay: SPR (Biacore X): m-FcγRIII injected over c515H7 Mab immobilized on a CM4 sensorchip; heterogeneous ligand model, major component (99%)
T3 construct: Soluble form bought from R&D Systems; also called m-FcγRIII
T3 sequence: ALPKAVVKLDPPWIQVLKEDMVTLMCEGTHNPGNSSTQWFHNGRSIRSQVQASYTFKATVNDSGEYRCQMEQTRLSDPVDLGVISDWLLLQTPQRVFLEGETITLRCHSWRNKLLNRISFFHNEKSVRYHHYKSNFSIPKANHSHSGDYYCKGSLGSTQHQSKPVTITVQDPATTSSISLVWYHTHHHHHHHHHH
Procedure: as §1, §2, §3

[8] = target: T4, Recombinant human FcγRIIIA variant V [CD16a], Gln17-Gln208 with C-terminal 6-His tag (human, UniProt P08637 17-208); assay: SPR (Biacore X): h-FcγRIIIA injected over c515H7 Mab immobilized on a CM4 sensorchip; heterogeneous ligand model, minor component (19%)
T4 construct: range 17-208; 'variant V' is given without a position, so no substitution is written; also called h-FcγRIIIA
Procedure: as §1, §2, §3

[9] = target: T4, Recombinant human FcγRIIIA variant V …; assay: SPR (Biacore X): h-FcγRIIIA injected over hz515H7VH1D76NVL2 Mab immobilized on a CM4 sensorchip; Langmuir model
Procedure: as §1, with “1964” for “2017”, “hz515H7VH1D76NVL2” for “c515H7”
as §2
After each injection of the analyte, the sensorchip was regenerated by injection of either 20 mM NaOH solution after h-FcγRI and m-FcγRIII or 10 mM NaOH after h-FcγRIIIA and m-FcγRI.

[10] = target: T3, Recombinant mouse FcγRIII [CD16], …; assay: SPR (Biacore X): m-FcγRIII injected over hz515H7VH1D76NVL2 Mab immobilized on a CM4 sensorchip; heterogeneous ligand model, major component (66%)

T2 sequence (P12314 other isoform, or with tags, fused parts or gaps limits assumed): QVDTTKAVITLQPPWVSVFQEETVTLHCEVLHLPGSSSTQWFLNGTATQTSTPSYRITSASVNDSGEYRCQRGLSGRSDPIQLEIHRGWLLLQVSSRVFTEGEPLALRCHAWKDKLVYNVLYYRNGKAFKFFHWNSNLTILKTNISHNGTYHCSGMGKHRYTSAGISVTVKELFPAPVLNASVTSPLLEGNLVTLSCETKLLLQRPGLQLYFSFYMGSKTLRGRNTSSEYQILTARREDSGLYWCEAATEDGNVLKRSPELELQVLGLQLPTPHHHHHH
T4 sequence (P08637 other isoform, or with tags, fused parts or gaps mutant limits assumed, form in doubt): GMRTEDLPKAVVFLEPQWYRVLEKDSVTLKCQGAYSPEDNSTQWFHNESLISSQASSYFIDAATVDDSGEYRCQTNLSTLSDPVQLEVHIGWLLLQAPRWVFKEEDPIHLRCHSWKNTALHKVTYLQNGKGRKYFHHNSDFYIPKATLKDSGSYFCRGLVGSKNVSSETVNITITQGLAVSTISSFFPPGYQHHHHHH

Kd [1]: 106 nM
koff [1]: 0.0661 s⁻¹
kon [1]: 622000 M⁻¹ s⁻¹
Kd [2]: 32 to 37 nM
Kd [3]: ~380 nM
Kd [4]: ~450 nM
Kd [5]: 416 nM
koff [5]: 0.138 s⁻¹
kon [5]: 332000 M⁻¹ s⁻¹
Kd [6]: 1.22 nM
koff [6]: 0.000599 s⁻¹
kon [6]: 493000 M⁻¹ s⁻¹
Kd [7]: 20.9 nM
koff [7]: 0.00446 s⁻¹
kon [7]: 213000 M⁻¹ s⁻¹
Kd [8]: 34.7 nM
koff [8]: 0.0124 s⁻¹
kon [8]: 357000 M⁻¹ s⁻¹
B1: chimeric antibody c515H7 (antibody, human IgG1, kappa)
heavy: not shown
light: DIVMSQSPSSLAVSAGEKVTMSCKSSQSLFNSRTRKNYLAWYQQKPGQSPKLLIYWASARDSGVPARFTGSGSETYFTLTISRVQAEDLAVYYCMQSFNLRTFGGGTKLEIKRTVAAPSVFIFPPSDEQLKSGTASVVCLLNNFYPREAKVQWKVDNALQSGNSQESVTEQDSKDSTYSLSSTLTLSKADYEKHKVYACEVTHQGLSSPVTKSFNRGEC
notes: Human IgG1/kappa constant domains; also called c515H7 Mab; chimeric 515H7

Kd [9]: 75.2 nM
koff [9]: 0.0351 s⁻¹
kon [9]: 467000 M⁻¹ s⁻¹
Kd [10]: 0.2 nM
koff [10]: 3.7e-05 s⁻¹
kon [10]: 178000 M⁻¹ s⁻¹
B2: humanized antibody Hz515H7 VH1 D76N VL2 (antibody, human IgG1, kappa)
heavy: not shown
light: B1 light with S5T, A15L, K18R, V19A, G105Q, L109V
notes: IgG1/kappa; also called hz515H7VL2; hz515H7-1
